Laboratory results from US7083511.
Values joined by “and” are separate entries in the source; they are usually repeats but may differ in a detail not shown here. Equal entries are not always repeated.

How the values were obtained:
PRTSSF = tested on: T1, PRTSSF
T1 sequence: PRTSSF

RPRTSS = tested on: T2, RPRTSS
T2 sequence: RPRTSS

RPRTSTF = tested on: T3, RPRTSTF
T3 sequence: RPRTSTF

RPRTSSK = tested on: T4, RPRTSSK
T4 sequence: RPRTSSK

Crosstide (GRPRTSSFAEG) = tested on: T5, Crosstide (GRPRTSSFAEG)
T5 sequence: GRPRTSSFAEG

RPRTSSV = tested on: T6, RPRTSSV
T6 sequence: RPRTSSV

RPRTSSL = tested on: T7, RPRTSSL
T7 sequence: RPRTSSL

RPKTSSF = tested on: T8, RPKTSSF
T8 sequence: RPKTSSF

RPRTSSE = tested on: T9, RPRTSSE
T9 sequence: RPRTSSE

KPRTSSF = tested on: T10, KPRTSSF
T10 sequence: KPRTSSF

RPRTSSF = tested on: T11, RPRTSSF
T11 sequence: RPRTSSF

RPRTSSA = tested on: T12, RPRTSSA
T12 sequence: RPRTSSA

RPRTSAF = tested on: T13, RPRTSAF
T13 sequence: RPRTSAF

RPRAATF = tested on: T14, RPRAATF
T14 sequence: RPRAATF

| Substance | kinase activity toward peptide (30 µM), relative to peptide 1 (Crosstide) (PRTSSF) [%] | kinase activity toward peptide (30 µM), relative to peptide 1 (Crosstide) (RPRTSS) | kinase activity toward peptide (30 µM), relative to peptide 1 (Crosstide) (RPRTSTF) [%] | kinase activity toward peptide (30 µM), relative to peptide 1 (Crosstide) (RPRTSSK) [%] | kinase activity toward peptide (30 µM), relative to peptide 1 (Crosstide) (Crosstide (GRPRTSSFAEG)) [%] | kinase activity toward peptide (30 µM), relative to peptide 1 (Crosstide) (RPRTSSV) [%] | kinase activity toward peptide (30 µM), relative to peptide 1 (Crosstide) (RPRTSSL) [%] | kinase activity toward peptide (30 µM), relative to peptide 1 (Crosstide) (RPKTSSF) [%] | kinase activity toward peptide (30 µM), relative to peptide 1 (Crosstide) (RPRTSSE) [%] | kinase activity toward peptide (30 µM), relative to peptide 1 (Crosstide) (KPRTSSF) | kinase activity toward peptide (30 µM), relative to peptide 1 (Crosstide) (RPRTSSF) | kinase activity toward peptide (30 µM), relative to peptide 1 (Crosstide) (RPRTSSA) [%] | kinase activity toward peptide (30 µM), relative to peptide 1 (Crosstide) (RPRTSAF) [%] | kinase activity toward peptide (30 µM), relative to peptide 1 (Crosstide) (RPRAATF) [%] |
| --- | --- | --- | --- | --- | --- | --- | --- | --- | --- | --- | --- | --- | --- | --- |
| GST-PKBα | < 1 | < 1% | 208 | 48 | 100 | 67 | 69 | 26 | 21 | 6% | 160% | 26 | < 1 | 55 |
| GST-SGK2α[S356D] | < 1 | 8% | 192 | 128 | 100 | 124 | 185 | 8 | 34 | < 1% | 182% | 82 | < 1 | 61 |
| GST-ΔN-SGK3[S419D] | < 1 | 18% | 156 | 200 | 100 | 139 | 113 | 48 | 67 | < 1% | 137% | 123 | < 1 | 56 |
| GST-ΔN-SGK(61-431)[S422D] | < 1 | 5.1% and 10% | – | – | 100 | – | – | – | – | 2% and < 1% | 154% and 135% | – | < 1 | – |
